A short description of this data set: self-splicing fitness, log relative to wild type (ln ratio); higher = more splicing; Tetrahymena group I intron in knt gene, E. coli kanamycin selection, DiMSum; sequences stand for … in CUCUCU…GGAGGGAAAAGUUAUCAGGCAUGCACCUGGUAGCUAGUCUUUAAACCAAUAGAUUGCAUCGGUUUAAAAGGCAAGACCGUCAAAUUGCGGGAAAGGGGUCAACAGCCGUUCAGUACCAAGUCUCAGGGGAAACUUUGAGAUGGCCUUGCAAAGGGUAUGGUAAUAAGCUGACGGACAUGGUCCUAACCACGCAGCCAAGUCCUAAGUCAACAGAUCUUCUGUUGAUAUGGAUGCAGUUCACAGACUAAAUGUCGGUCGGGGAAGAUGUAUUCUUCUCAUAAGAUAUAGUCGGACCUCUCCUUAAUGGGAGCUAGCGGAUGAAGUGAUGCAACACUGGAGCCGCUGGGAACUAAUUUGUAUGCGAAAGUAUAUUGAUUAGUUUUGGAGUACUCGUGGUCG
Put shortly:
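Six replicate transformations of E. coli BL21(DE3) with a pET-22b(+) library were grown overnight at 37°C or 30°C. The library randomised all eight P1ex-region intron nucleotides, the intron lying in the knt kanamycin-resistance gene, and plates were LB agar with or without 25 μg/mL kanamycin plus 100 μg/mL carbenicillin, 50 μM IPTG and 0.2% rhamnose. Pooled colonies were amplicon-sequenced on an Illumina HiSeq 2500, and fitness is the DiMSum error-weighted combination of wild-type-normalised replicate fold changes, kanamycin versus none.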

± gives the uncertainty stated by the source.

For UAUCAGCAAUAUUACGUAUC, the “self-splicing fitness (ln)” value was -2.11 ± 0.08 (30 °C) and -0.822 ± 0.096 (37 °C). The matching figures for AGCAAGCAAUAUUACGCACU: -1.89 ± 0.11 and -1.37 ± 0.14. The like results for GCAAAGCAAUAUUACGGUCU were, in that order, -1.38 ± 0.087 and 0.608 ± 0.1. In the case of GUCUAGCAAUAUUACGGGGA, the “self-splicing fitness (ln)” value is -2.08 ± 0.25 (30 °C) and -3.16 ± 0.32 (37 °C).

For the sequence UAGUAGCAAUAUUACGUCUA, the “self-splicing fitness (ln)” value is, setting by setting: (30 °C) 0.265 ± 0.095; (37 °C) 0.659 ± 0.1. The like results for CAAGAGCAAUAUUACGUUGC were, in that order, -3.28 ± 0.2 and -2.38 ± 0.23.

Regarding GGUGAGCAAUAUUACGUUUC, the “self-splicing fitness (ln)” value is -3.36 ± 0.29 (30 °C) and -1.68 ± 0.25 (37 °C). The like results for UAGGAGCAAUAUUACGUCCA were, in that order, -1.23 ± 0.17 and -0.339 ± 0.18. The matching figures for ACUUAGCAAUAUUACGUUGU: -2.9 ± 0.15 and -2.12 ± 0.15. As for CUAAAGCAAUAUUACGUACU, the “self-splicing fitness (ln)” value (30 °C) is -3.28 ± 0.17 and the “self-splicing fitness (ln)” value (37 °C) was -2.57 ± 0.22. The like results for CACCAGCAAUAUUACGCGAG were, in that order, -0.893 ± 0.057 and -0.594 ± 0.063.

As for UCGCAGCAAUAUUACGAAUC, the “self-splicing fitness (ln)” value (30 °C) was -4.04 ± 0.2 and the “self-splicing fitness (ln)” value (37 °C) was -2.61 ± 0.2.

For the sequence UGAUAGCAAUAUUACGGUGA, the “self-splicing fitness (ln)” value (30 °C) is -1.46 ± 0.16 and the “self-splicing fitness (ln)” value (37 °C) is -0.637 ± 0.19. The matching figures for AACUAGCAAUAUUACGAAGG: -3.46 ± 0.2 and -2.74 ± 0.26.

GGCCAGCAAUAUUACGCUCU: the “self-splicing fitness (ln)” value runs as follows: (30 °C) -0.639 ± 0.12; (37 °C) -0.0247 ± 0.17. Take GUACAGCAAUAUUACGUCGA: the “self-splicing fitness (ln)” value is -2.07 ± 0.11 (30 °C) and -1.78 ± 0.12 (37 °C). With GAUAAGCAAUAUUACGACAC, the “self-splicing fitness (ln)” value runs as follows: (30 °C) -0.403 ± 0.12; (37 °C) 0.0901 ± 0.16. The matching figures for AAUCAGCAAUAUUACGGUGC: -0.892 ± 0.072 and -0.189 ± 0.082. Turning to CUGAAGCAAUAUUACGCCUA, the “self-splicing fitness (ln)” value reads like this: (30 °C) -3.82 ± 0.24; (37 °C) -3.63 ± 0.33. The matching figures for CCCGAGCAAUAUUACGACUU: -3.24 ± 0.26 and -3.01 ± 0.25.

On to UGGUAGCAAUAUUACGGUAG, for which the “self-splicing fitness (ln)” value was -2.53 ± 0.2 (30 °C) and -0.912 ± 0.14 (37 °C). With GACUAGCAAUAUUACGCCAA, the “self-splicing fitness (ln)” value (37 °C) is -1.6 ± 0.29. Turning to CGUCAGCAAUAUUACGAUAU, the “self-splicing fitness (ln)” value is -2.13 ± 0.13 (30 °C) and -0.978 ± 0.13 (37 °C).

Regarding UUCUAGCAAUAUUACGGAGU, the “self-splicing fitness (ln)” value by setting is: (30 °C) -2.24 ± 0.2; (37 °C) -2.56 ± 0.26. On to GGGGAGCAAUAUUACGUGGG, for which the “self-splicing fitness (ln)” value (30 °C) is -2.75 ± 0.32. With ACCUAGCAAUAUUACGUCGC, the “self-splicing fitness (ln)” value is, setting by setting: (30 °C) -2.66 ± 0.18; (37 °C) -0.636 ± 0.15. The like results for CGUAAGCAAUAUUACGACAG were, in that order, -0.247 ± 0.11 and -0.867 ± 0.14. Consider AAUAAGCAAUAUUACGAUAC, for which the “self-splicing fitness (ln)” value is, setting by setting: (30 °C) -2.25 ± 0.25; (37 °C) -1.44 ± 0.44. The like results for ACUCAGCAAUAUUACGUCAU were, in that order, -1.29 ± 0.068 and -0.61 ± 0.088. The like results for AGACAGCAAUAUUACGAGGA were, in that order, -3.17 ± 0.22 and -0.745 ± 0.17. The matching figures for UUAUAGCAAUAUUACGCUGU: -3.59 ± 0.37 and -1.06 ± 0.37. As to AAUGAGCAAUAUUACGUUGC, the “self-splicing fitness (ln)” value runs as follows: (30 °C) -4.6 ± 0.45; (37 °C) -2.78 ± 0.29. Regarding UAUUAGCAAUAUUACGGGCG, the “self-splicing fitness (ln)” value is, setting by setting: (30 °C) -0.882 ± 0.076; (37 °C) 0.185 ± 0.083. The matching figures for ACGGAGCAAUAUUACGGGCC: -2.53 ± 0.48 and -1.06 ± 0.4. The matching figures for UCUAAGCAAUAUUACGUCUA: -2.51 ± 0.33 and -2.25 ± 0.4. As to UGGUAGCAAUAUUACGCGCU, the “self-splicing fitness (ln)” value is, setting by setting: (30 °C) -2.58 ± 0.18; (37 °C) -1.31 ± 0.18. The like results for UUUCAGCAAUAUUACGCCAA were, in that order, -0.879 ± 0.18 and -0.379 ± 0.18. Turning to UCAUAGCAAUAUUACGGAGA, the “self-splicing fitness (ln)” value is, setting by setting: (30 °C) -1.95 ± 0.17; (37 °C) -0.994 ± 0.13.

The values above are taken from the supplement of paper PMC7877785.
